Data from PMC7572726.

What was measured:
[1] = target: Capnocytophaga granulosa STING (Capnocytophaga granulosa); assay: crystal structure
[2] = target: SfSTING with the TIR domain removed (ΔTIR) (Sphingobacterium faecium); assay: SEC-MALS
[3] = target: TIR-only construct of SfSTING with the cyclic dinucleotide binding domain removed (ΔCDN) (Sphingobacterium faecium); assay: SEC-MALS

Substance: Capnocytophaga granulosa STING (from UniProt A0A381HAP5 151-314) (domain or fragment)
- stoichiometry N [1]: 2

Substance: SfSTING with the TIR domain removed (ΔTIR) (domain or fragment)
- stoichiometry N [2]: 2

Substance: TIR-only construct of SfSTING with the cyclic dinucleotide binding domain removed (ΔCDN) (domain or fragment)
- stoichiometry N [3]: 2
